Measured values taken from article PMC3368277.

Target: His-tagged recombinant C0–C1 domains of cardiac myosin binding protein-C (mouse)
Test: pull-down

His-tagged recombinant C0–C1 domains of cardiac myosin binding protein-C (mouse), sequence (O70468 whole entry, the tested form may be a part): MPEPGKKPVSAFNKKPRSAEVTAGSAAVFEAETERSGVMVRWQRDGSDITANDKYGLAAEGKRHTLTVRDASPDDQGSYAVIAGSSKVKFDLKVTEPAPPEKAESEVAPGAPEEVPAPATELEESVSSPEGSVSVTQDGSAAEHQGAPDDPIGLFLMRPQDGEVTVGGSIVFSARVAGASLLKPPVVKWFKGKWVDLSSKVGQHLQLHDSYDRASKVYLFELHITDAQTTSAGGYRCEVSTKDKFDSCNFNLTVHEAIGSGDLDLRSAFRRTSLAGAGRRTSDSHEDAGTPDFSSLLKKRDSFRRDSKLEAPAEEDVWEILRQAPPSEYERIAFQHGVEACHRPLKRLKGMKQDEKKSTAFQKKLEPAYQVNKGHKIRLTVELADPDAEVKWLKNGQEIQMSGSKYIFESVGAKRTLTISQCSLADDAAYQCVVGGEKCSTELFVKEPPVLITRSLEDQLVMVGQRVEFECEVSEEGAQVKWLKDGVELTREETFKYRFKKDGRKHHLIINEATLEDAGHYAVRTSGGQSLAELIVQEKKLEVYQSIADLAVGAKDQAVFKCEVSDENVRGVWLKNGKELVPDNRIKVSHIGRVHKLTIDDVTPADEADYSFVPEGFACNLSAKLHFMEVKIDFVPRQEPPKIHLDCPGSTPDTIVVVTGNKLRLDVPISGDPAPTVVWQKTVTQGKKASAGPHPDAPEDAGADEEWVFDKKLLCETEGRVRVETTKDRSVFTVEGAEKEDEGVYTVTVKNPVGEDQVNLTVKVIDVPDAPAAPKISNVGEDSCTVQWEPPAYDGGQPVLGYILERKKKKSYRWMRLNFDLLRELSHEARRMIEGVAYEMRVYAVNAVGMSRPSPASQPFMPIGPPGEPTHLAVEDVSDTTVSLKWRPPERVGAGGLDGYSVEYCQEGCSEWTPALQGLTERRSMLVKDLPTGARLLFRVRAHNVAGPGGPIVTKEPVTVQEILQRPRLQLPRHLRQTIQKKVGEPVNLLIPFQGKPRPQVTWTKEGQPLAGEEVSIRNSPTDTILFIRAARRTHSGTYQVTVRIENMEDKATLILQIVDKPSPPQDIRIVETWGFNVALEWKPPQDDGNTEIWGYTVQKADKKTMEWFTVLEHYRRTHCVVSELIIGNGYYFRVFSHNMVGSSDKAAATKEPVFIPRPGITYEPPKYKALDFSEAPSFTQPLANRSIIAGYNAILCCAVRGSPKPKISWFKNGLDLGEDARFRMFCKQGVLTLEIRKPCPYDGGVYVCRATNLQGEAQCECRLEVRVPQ

reduction of binding against C0–C2 (quantified blot): 50%
Substance: sarcomeric actin (from UniProt P68033 1-377) (natural protein)
